T1: mouse FcγRIII extracellular domain with C-terminal His tag (mouse, UniProt P08508 31-215)
T1 construct: Made on the basis of NCBI NP-034318.2; also called mFcγRIII; mFcgRIII
T1 chain: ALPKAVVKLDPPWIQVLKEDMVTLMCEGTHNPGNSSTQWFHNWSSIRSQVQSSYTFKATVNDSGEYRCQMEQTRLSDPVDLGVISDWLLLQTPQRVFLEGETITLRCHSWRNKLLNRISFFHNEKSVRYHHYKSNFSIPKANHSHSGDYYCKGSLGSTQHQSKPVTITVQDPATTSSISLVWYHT

T2: mouse FcγRII extracellular domain with C-terminal His tag (mouse, UniProt P08101 30-210)
T2 construct: Made on the basis of NCBI NP-034317.1; also called mFcγRII; mFcgRII
T2 sequence: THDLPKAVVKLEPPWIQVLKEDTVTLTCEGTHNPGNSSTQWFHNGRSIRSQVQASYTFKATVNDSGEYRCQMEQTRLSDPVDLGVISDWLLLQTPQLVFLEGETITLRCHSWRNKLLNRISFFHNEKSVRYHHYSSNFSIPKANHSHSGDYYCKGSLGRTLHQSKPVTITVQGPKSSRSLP


Experiments:
[1] = target: T1, mouse FcγRIII extracellular domain with …; test: SPR Biacore T200
Method: (§1) Each altered antibody was analyzed for its interaction with each Fcγ receptor prepared above using Biacore T100 (GE Healthcare Japan Corp.), Biacore T200 (GE Healthcare Japan Corp.), Biacore A100, or Biacore 4000. The running buffer used was HBS-EP+ (GE Healthcare Japan Corp.). The assay temperature was set to 25° C. The sensor chips used were chips prepared by immobilizing Protein L (ACTIGEN or BioVision) onto Series S Sensor Chip CM5 (GE Healthcare Japan Corp.) or Series S Sensor Chip CM4 (GE Healthcare Japan Corp.) by the amine coupling method.
(§2) In order to calculate the KD value of each altered antibody for FcγR, kinetic analysis was conducted according to the following method: first, the antibody of interest was captured onto any of these chips and allowed to interact with mFcγR diluted with a running buffer. For the obtained sensorgram, the assay results were globally fit into the 1:1 Langmuir binding model using Biacore Evaluation Software to calculate an association rate constant ka (L/mol/s) and a dissociation rate constant kd (1/s). From these values, the dissociation constant KD (mol/L) was calculated.

[2] = target: T2, mouse FcγRII extracellular domain with …; test: SPR Biacore T200
Method: as §1, §2

[3] = target: T2, mouse FcγRII extracellular domain with …; test: SPR Biacore T200; KD mFcγRIII / KD mFcγRII
Method: as §1, §2

Binder | Kd [1] [nM] | relative mFcγRIII-binding activity (mIgG1 = 1) [1] | Kd [2] [nM] | relative mFcγRII-binding activity (mIgG1 = 1) [2] | I/A (mFcγRII selectivity) [3] | relative I/A (mFcγRII selectivity) (mIgG1 = 1) [3]
H237-MB392/MRAL-k0 (antibody, mouse IgG1, kappa, copies: 2 + 2) heavy: QVQLQESGPGLVKPSETLSLTCAVSGHSISHDHAWSWVRQPPGEGLEWIGFISYSGITNYNPSLQGRVTISRDNSKNTLYLQMNSLRAEDTAVYYCARSLARTTAMDYWGEGTLVTVSSAKTTPPSVYPLAPGSAAQTNSMVTLGCLVKGYFPEPVTVTWNSGSLSSGVHTFPAVLQSDLYTLSSSVTVPSSTWPSETVTCNVAHPASSTKVDKKIVPRDCGCKPCICEPYEVEDVFIFPPKPKDVLTITLTPKVTCVVVDISKDDPEVQFSWFVDDVEVHTAQTQPREEQFNSTFRSVSELPIMHQDWLNGKEFKCRVNSAAFPAPIEKTISKTKGRPKAPQVYTIPPPKEQMAKDKVSLTCMITDFFPEDITVEWQWNGQPAENYKNTQPIMDTDGSYFVYSKLNVQKSNWEAGNTFTCSVLHEGLHNHHTEKSLSHSPGK light: not shown | 19.5 | 14.5 | 0.817 | 257 | 23.9 | 17.8
H237-MB401/MRAL-k0 (antibody, mouse IgG1, kappa, copies: 2 + 2) heavy: QVQLQESGPGLVKPSETLSLTCAVSGHSISHDHAWSWVRQPPGEGLEWIGFISYSGITNYNPSLQGRVTISRDNSKNTLYLQMNSLRAEDTAVYYCARSLARTTAMDYWGEGTLVTVSSAKTTPPSVYPLAPGSAAQTNSMVTLGCLVKGYFPEPVTVTWNSGSLSSGVHTFPAVLQSDLYTLSSSVTVPSSTWPSETVTCNVAHPASSTKVDKKIVPRDCGCKPCICEWWEVEDVFIFPPKPKDVLTITLTPKVTCVVVDISKDDPEVQFSWFVDDVEVHTAQTQPREEQFNSTFRSVSELPIMHQDWLNGKEFKCRVNSAAFPAPIEKTISKTKGRPKAPQVYTIPPPKEQMAKDKVSLTCMITDFFPEDITVEWQWNGQPAENYKNTQPIMDTDGSYFVYSKLNVQKSNWEAGNTFTCSVLHEGLHNHHTEKSLSHSPGK light: not shown | – | 6.9 | – | 162 | – | 23.7
H237-MB400/MRAL-k0 (antibody, mouse IgG1, kappa, copies: 2 + 2) heavy: QVQLQESGPGLVKPSETLSLTCAVSGHSISHDHAWSWVRQPPGEGLEWIGFISYSGITNYNPSLQGRVTISRDNSKNTLYLQMNSLRAEDTAVYYCARSLARTTAMDYWGEGTLVTVSSAKTTPPSVYPLAPGSAAQTNSMVTLGCLVKGYFPEPVTVTWNSGSLSSGVHTFPAVLQSDLYTLSSSVTVPSSTWPSETVTCNVAHPASSTKVDKKIVPRDCGCKPCICEWNEVEDVFIFPPKPKDVLTITLTPKVTCVVVDISKDDPEVQFSWFVDDVEVHTAQTQPREEQFNSTFRSVSELPIMHQDWLNGKEFKCRVNSAAFPAPIEKTISKTKGRPKAPQVYTIPPPKEQMAKDKVSLTCMITDFFPEDITVEWQWNGQPAENYKNTQPIMDTDGSYFVYSKLNVQKSNWEAGNTFTCSVLHEGLHNHHTEKSLSHSPGK light: not shown | – | 5.5 | – | 81.7 | – | 15
H237-MB393/MRAL-k0 (antibody, mouse IgG1, kappa, copies: 2 + 2) heavy: QVQLQESGPGLVKPSETLSLTCAVSGHSISHDHAWSWVRQPPGEGLEWIGFISYSGITNYNPSLQGRVTISRDNSKNTLYLQMNSLRAEDTAVYYCARSLARTTAMDYWGEGTLVTVSSAKTTPPSVYPLAPGSAAQTNSMVTLGCLVKGYFPEPVTVTWNSGSLSSGVHTFPAVLQSDLYTLSSSVTVPSSTWPSETVTCNVAHPASSTKVDKKIVPRDCGCKPCICETPEVEDVFIFPPKPKDVLTITLTPKVTCVVVDISKDDPEVQFSWFVDDVEVHTAQTQPREEQFNSTFRSVSELPIMHQDWLNGKEFKCRVNSAAFPAPIEKTISKTKGRPKAPQVYTIPPPKEQMAKDKVSLTCMITDFFPEDITVEWQWNGQPAENYKNTQPIMDTDGSYFVYSKLNVQKSNWEAGNTFTCSVLHEGLHNHHTEKSLSHSPGK light: not shown | – | 5.6 | – | 89.9 | – | 16
H237-MB399/MRAL-k0 (antibody, mouse IgG1, kappa, copies: 2 + 2) heavy: QVQLQESGPGLVKPSETLSLTCAVSGHSISHDHAWSWVRQPPGEGLEWIGFISYSGITNYNPSLQGRVTISRDNSKNTLYLQMNSLRAEDTAVYYCARSLARTTAMDYWGEGTLVTVSSAKTTPPSVYPLAPGSAAQTNSMVTLGCLVKGYFPEPVTVTWNSGSLSSGVHTFPAVLQSDLYTLSSSVTVPSSTWPSETVTCNVAHPASSTKVDKKIVPRDCGCKPCICEWAEVEDVFIFPPKPKDVLTITLTPKVTCVVVDISKDDPEVQFSWFVDDVEVHTAQTQPREEQFNSTFRSVSELPIMHQDWLNGKEFKCRVNSAAFPAPIEKTISKTKGRPKAPQVYTIPPPKEQMAKDKVSLTCMITDFFPEDITVEWQWNGQPAENYKNTQPIMDTDGSYFVYSKLNVQKSNWEAGNTFTCSVLHEGLHNHHTEKSLSHSPGK light: not shown | – | 3.9 | – | 71.8 | – | 18.2
H237-MB396/MRAL-k0 (antibody, mouse IgG1, kappa, copies: 2 + 2) heavy: QVQLQESGPGLVKPSETLSLTCAVSGHSISHDHAWSWVRQPPGEGLEWIGFISYSGITNYNPSLQGRVTISRDNSKNTLYLQMNSLRAEDTAVYYCARSLARTTAMDYWGEGTLVTVSSAKTTPPSVYPLAPGSAAQTNSMVTLGCLVKGYFPEPVTVTWNSGSLSSGVHTFPAVLQSDLYTLSSSVTVPSSTWPSETVTCNVAHPASSTKVDKKIVPRDCGCKPCICETWEVEDVFIFPPKPKDVLTITLTPKVTCVVVDISKDDPEVQFSWFVDDVEVHTAQTQPREEQFNSTFRSVSELPIMHQDWLNGKEFKCRVNSAAFPAPIEKTISKTKGRPKAPQVYTIPPPKEQMAKDKVSLTCMITDFFPEDITVEWQWNGQPAENYKNTQPIMDTDGSYFVYSKLNVQKSNWEAGNTFTCSVLHEGLHNHHTEKSLSHSPGK light: not shown | 15.8 | 17.9 | 0.707 | 297 | 22.3 | 16.6
H237-MB395/MRAL-k0 (antibody, mouse IgG1, kappa, copies: 2 + 2) heavy: QVQLQESGPGLVKPSETLSLTCAVSGHSISHDHAWSWVRQPPGEGLEWIGFISYSGITNYNPSLQGRVTISRDNSKNTLYLQMNSLRAEDTAVYYCARSLARTTAMDYWGEGTLVTVSSAKTTPPSVYPLAPGSAAQTNSMVTLGCLVKGYFPEPVTVTWNSGSLSSGVHTFPAVLQSDLYTLSSSVTVPSSTWPSETVTCNVAHPASSTKVDKKIVPRDCGCKPCICETNEVEDVFIFPPKPKDVLTITLTPKVTCVVVDISKDDPEVQFSWFVDDVEVHTAQTQPREEQFNSTFRSVSELPIMHQDWLNGKEFKCRVNSAAFPAPIEKTISKTKGRPKAPQVYTIPPPKEQMAKDKVSLTCMITDFFPEDITVEWQWNGQPAENYKNTQPIMDTDGSYFVYSKLNVQKSNWEAGNTFTCSVLHEGLHNHHTEKSLSHSPGK light: not shown | – | 8.2 | – | 154 | – | 18.7
H237-MB398/MRAL-k0 (antibody, mouse IgG1, kappa, copies: 2 + 2) heavy: QVQLQESGPGLVKPSETLSLTCAVSGHSISHDHAWSWVRQPPGEGLEWIGFISYSGITNYNPSLQGRVTISRDNSKNTLYLQMNSLRAEDTAVYYCARSLARTTAMDYWGEGTLVTVSSAKTTPPSVYPLAPGSAAQTNSMVTLGCLVKGYFPEPVTVTWNSGSLSSGVHTFPAVLQSDLYTLSSSVTVPSSTWPSETVTCNVAHPASSTKVDKKIVPRDCGCKPCICEWPEVEDVFIFPPKPKDVLTITLTPKVTCVVVDISKDDPEVQFSWFVDDVEVHTAQTQPREEQFNSTFRSVSELPIMHQDWLNGKEFKCRVNSAAFPAPIEKTISKTKGRPKAPQVYTIPPPKEQMAKDKVSLTCMITDFFPEDITVEWQWNGQPAENYKNTQPIMDTDGSYFVYSKLNVQKSNWEAGNTFTCSVLHEGLHNHHTEKSLSHSPGK light: not shown | – | 3.5 | – | 45.8 | – | 13
H237-MB394/MRAL-k0 (antibody, Printed M8394, read as MB394; also called M8394; copies: 2 + 2) heavy: QVQLQESGPGLVKPSETLSLTCAVSGHSISHDHAWSWVRQPPGEGLEWIGFISYSGITNYNPSLQGRVTISRDNSKNTLYLQMNSLRAEDTAVYYCARSLARTTAMDYWGEGTLVTVSSAKTTPPSVYPLAPGSAAQTNSMVTLGCLVKGYFPEPVTVTWNSGSLSSGVHTFPAVLQSDLYTLSSSVTVPSSTWPSETVTCNVAHPASSTKVDKKIVPRDCGCKPCICETAEVEDVFIFPPKPKDVLTITLTPKVTCVVVDISKDDPEVQFSWFVDDVEVHTAQTQPREEQFNSTFRSVSELPIMHQDWLNGKEFKCRVNSAAFPAPIEKTISKTKGRPKAPQVYTIPPPKEQMAKDKVSLTCMITDFFPEDITVEWQWNGQPAENYKNTQPIMDTDGSYFVYSKLNVQKSNWEAGNTFTCSVLHEGLHNHHTEKSLSHSPGK light: not shown | – | 7.5 | – | 134 | – | 17.8

Source: US20150203577A1 (Chugai, published 2015)
